We go through 15 molecules from patent US20160264650A1 (Regeneron, published 2016).

Where two headings read alike, the source gives them in different places.

For assay [1], the target named is T1, CBD-toxin A-Fc (Clostridium difficile, UniProt P16154 1848-2710).
T1 construct: also called CBD-A; C-term Toxin A
In words: SPR Biacore, mAb captured, 100 nM CBD-A-Fc flowed.

Assay [2] concerns the target T2, Clostridium difficile toxin A, soluble full-length (TechLab) (Clostridium difficile, UniProt P16154 1-2710). In words: cell-based or functional assay.
For assay [3], the target named is T1, CBD-toxin A-Fc. Briefly: SPR Biacore, CBD-A-Fc captured, 500 nM mAb flowed.
Assay [4] concerns the target T2, Clostridium difficile toxin A, soluble …. Briefly: SPR Biacore T200, 37C, mAb capture.
Assay [5] has the same target. Briefly: SPR Biacore T200, 37C, mAb capture. This is another data set of the same source. On the technique in general: In SPR one partner is held on a chip, and binding of the other changes the refractive index at the surface.
For assay [6], the target named is T3, Clostridium difficile toxin B, soluble full-length (TechLab) (Clostridium difficile, UniProt P18177 2-2366).
T3 construct: also called tcdB
Briefly: SPR Biacore T200, 37C, mAb capture.

Assay [7] has as its target T3, Clostridium difficile toxin B, soluble …. Briefly: cell-based or functional assay.
The target in the next assay is T4, CBD-toxin B-Fc (Clostridium difficile, UniProt P18177 1851-2366).
T4 construct: also called CBD-B; C-term Toxin B
Briefly: SPR Biacore, CBD-B-Fc captured, 500 nM mAb flowed.

Assay [8] has as its target T5, C-term receptor Binding Domain (CBD) of toxin B (Clostridium difficile, UniProt P18177 1851-2366).
T5 construct: also called CBD-B
In words: SEC (Superose 6) of CBD and mAb mixture.

B1: H1M3117N (antibody, V domains shown)
VH: EVQLLESGGGLAQPGGSLRLSCAASGFNFGTHDMSWVRQAPGKGLEWVSGLTSTGGSASSADSVKGRFTISRDNSKNILYLQMNSLRAEDTAVYYCAKTFNWNSYFDYWGQGTLVTVSS
VL: EIVLTQSPGTLSLSPGERATLSCRASQSISTYYLAWYQQKPDQPPRLLIYGTSSRATGIPDRFSGSGSGTDFTLTISRLDPEDFAVYYCQQYGNSLYTFGQGTKLEIK
Regarding B1, the figures for the “binding (RU)” value in the assay with CBD-toxin A-Fc [1] and with CBD-toxin A-Fc [3] were -3 RU and 350 RU, respectively. Besides, the “IC50, Vero cell viability (neutralization), Trial 1, 32 pM Toxin A” value in assay [2] is 29 pM. For the same molecule, the “IC50, Vero cell viability (neutralization), Trial 2, 32 pM Toxin A” value in assay [2] is 11 pM.

B2: H1H3117N (antibody, V domains shown)
VH: EVQLLESGGGLAQPGGSLRLSCAASGFNFGTHDMSWVRQAPGKGLEWVSGLTSTGGSASSADSVKGRFTISRDNSKNILYLQMNSLRAEDTAVYYCAKTFNWNSYFDYWGQGTLVTVSS
VL: EIVLTQSPGTLSLSPGERATLSCRASQSISTYYLAWYQQKPDQPPRLLIYGTSSRATGIPDRFSGSGSGTDFTLTISRLDPEDFAVYYCQQYGNSLYTFGQGTKLEIK
Regarding B2, in assay [4], the Kd was 79.3 pM, the “T½” value amounted to 5.53 h, the koff is 3.84e-05 s⁻¹ and the kon stood at 438000 M⁻¹ s⁻¹.

B3: H2aM3067N (antibody, V domains shown)
VH: QIQLVESGGGVVQPGRSLRLSCVASGFTLSGHGMHWVRQAPGKGLEWVAFISFDGGHQDYTDAAEGRFTISRDNSKNTLYLEMVSLRPADTAIYYCVKGSDSSRGFGYWGRGILVTVSS
VL: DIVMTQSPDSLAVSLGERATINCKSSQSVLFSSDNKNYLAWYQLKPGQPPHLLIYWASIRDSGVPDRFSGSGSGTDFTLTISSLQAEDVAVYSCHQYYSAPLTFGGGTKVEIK
notes: also called H2M3067N; H1M3067N
For B3, in the assay with CBD-toxin A-Fc [1], the “binding (RU)” value was -2 RU. Also, in [2], the “IC50, Vero cell viability (neutralization), Trial 1, 32 pM Toxin A” value is 64 pM and the “IC50, Vero cell viability (neutralization), Trial 2, 32 pM Toxin A” value came to 44 pM. In addition, the “binding (RU)” value with CBD-toxin A-Fc [3] came to 237 RU.

B4: H1H3067N (antibody, V domains shown)
VH: QIQLVESGGGVVQPGRSLRLSCVASGFTLSGHGMHWVRQAPGKGLEWVAFISFDGGHQDYTDAAEGRFTISRDNSKNTLYLEMVSLRPADTAIYYCVKGSDSSRGFGYWGRGILVTVSS
VL: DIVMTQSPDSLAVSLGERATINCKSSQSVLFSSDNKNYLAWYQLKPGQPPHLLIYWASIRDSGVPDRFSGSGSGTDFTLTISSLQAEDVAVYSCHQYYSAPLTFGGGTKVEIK
Consider B4, for which, in assay [5], binding was put at a Kd of 240 pM, the “T½” value was found to be 5.58 h, the koff worked out at 3.45e-05 s⁻¹ and the kon stood at 144000 M⁻¹ s⁻¹.

B5: H1H3350P (antibody, V domains shown)
VH: QVQLVESGGGLVKPGGSLTLSCVASGFTFTDYYISWIRQAPGKGLEWISYIGTGGAAKYYADSVKGRFTVSRDNAKNSLYLLMNNLRAEDTAVYYCARDLGIFDLWGQGTLVTVSS
VL: EIVMTQSPATLSVSPGERATLSCRASQSVSSSLAWYHQKPGQAPRLLIHGVSTRATGIPARFSGTGSGTEFTLTISSLQSEDFAVYYCQQYHNWPPYTFGQGTKLEIKR
For B5, in [4], binding was characterised by a dissociation constant (Kd) of 10.1 pM, the “T½” value turned out to be 47.6 h, the koff was 4.05e-06 s⁻¹ and the kon was 402000 M⁻¹ s⁻¹.

B6: Control I (anti-toxin A antibody with the variable domains of the "3D8" antibody of U.S. Pat. No. 7,625,559 and US2005/0287150) (antibody, human IgG1, kappa, V domains shown)
VH: QVQLVESGGGVVQPGRSLRLSCAASGFSFSNYGMHWVRQAPGKGLEWVALIWYDGSNEDYTDSVKGRFTISRDNSKNTLYLQMNSLRAEDTAVYYCARWGMVRGVIDVFDIWGQGTVVTVSS
VL: DIQMTQSPSSVSASVGDRVTITCRASQGISSWLAWYQHKPGKAPKLLIYAASSLQSGVPSRFSGSGSGTDFTLTISSLQPEDFATYYCQQANSFPWTFGQGTKVEIKR
notes: also called control 1; Control Antibody I
B6: the “IC50, Vero cell viability (neutralization), Trial 5, 25 pM Toxin A” value in assay [2] turned out to be 199 pM. Besides, in assay [4], the Kd is 85.9 pM, the “T½” value came to 0.967 h, the koff worked out at 3.24e-05 s⁻¹ and the kon was found to be 377000 M⁻¹ s⁻¹.

B7: H1H3411P (antibody, V domains shown)
VH: EVQLVESGGGLVQPGGSLRLSCAASGFTFSRYGMNWVRQAPGKGLEWVSAISGSGGSTYHADSVKGRFTISRDNSKNTLYLQMNSLRAADTAIYFCASYNWNDGVDVWGQGTTVTVS
VL: DIQMTQSPSSVSASIGDRVTITCRASQGISNWLAWYQQKPGKAPKLLIYGASSLQSGVSSRFSGSGSGTDFTLTIISLQPEDFATYYCQQANSFPYTFGQGTKLEIKR
With B7, in assay [6], the Kd stood at 677 pM, the “T½” value is 1.22 h, the koff came out at 0.000159 s⁻¹ and the kon worked out at 235000 M⁻¹ s⁻¹. Besides, the “IC50, Vero cell viability (neutralization), Trial 2, 0.1 pM Toxin B; antibody only partially protects (40-50%) at highest concentration” value in assay [7] is 8 pM.

B8: H1H3401P (antibody, V domains shown)
VH: QVQLVESGGGVVQPGRSLRLSCEASGFTFSSYGMHWVRQAPGNGLEWIAVISSDGNNKYYIESVKGRFTMSRDNSKNTLYLQLNSLRTEDTAVYYCATYNWNDDGDGVFDYWGQGTLVTVSS
VL: DIQMTQSPSSVSASVGDRVTITCRASQGISNWLAWYQQKPGKAPKLLIYGTSSLQSGVPSRFSGSGSGTDFTLTISSLQPEDFATYYCQQVKSFPYTFGQGTKLEIKR
For the molecule B8, in [6], binding was characterised by a dissociation constant (Kd) of 574 pM, the “T½” value is 0.8 h, the koff came to 0.000241 s⁻¹ and the kon is 420000 M⁻¹ s⁻¹.

B9: H1H3394P (antibody, V domains shown)
VH: QVQLVQSGAEVQKPGASVKVSCKASGYTFTDYYIHWVRQAPGQGLEWMGWINPKTGGTNYAPKFQGRVTMTRDSSIITAYMDLTRLTSDDTAVFYCARRGYNSRWSVFDYWGQGTLVTVSS
VL: EIVLTQSPGTLSLSPGERATLSCRASQSVYSNYLAWYQQKRGLAPRLLIYGASSRATGIPDRFSGSGSGTDFTLTISRLEPEDFAVYYCQQHGGSPVTFGGGTKVEIKR
Take B9: in assay [6], binding was put at a Kd of 333 pM, the “T½” value was 1.2 h, the koff worked out at 0.000162 s⁻¹ and the kon was 486000 M⁻¹ s⁻¹.

B10: H1H3355P (antibody, V domains shown)
VH: EVQLVESGGGLVQPGRSLRLSCTASGFVFEDYAMHWVRQAPGKGLEWVSGISWNSGRIGYTDSVKGRFTVSRDNAKNSLYLQMNSLTTEDTALYYCAKDKSPSKWNLLGMDVWGQGTTVTVSS
VL: AIQMTQSPSSLSASVGDRVTITCRASQDIRNDLGWFQQKPGRAPNLLIFGASSLQSGVPSRFSGSGSGTDFTLTISGLQPEDFSTYYCLQDYTYPFTFGPGTKVDIKR
For the molecule B10, the binding result in [6] is given as “no binding (tested: toxin at 5 to 10 nM)”.

B11: H1H3324P (antibody, V domains shown)
VH: EVQLVESGGGLVQPGGSLRLSCAASGFTFSSYDMHWVRQVIGKGLEWVSAIGTVGDTYYAGSVKGRFTISRENAKNSLYLQMNSLRAGDTAVYYCARDRGGANIYSFYYGMDVWGQGTTVTVSS
VL: DIQMTQSPSSLSVSVGDRVTITCRASQDISNYLAWYQQKPGKVPKLLIYAASTLQSGVPSRFSGSGSGTDFTLTISSLQPEDVATYFCQKYNSAPFTFGPGTKVDIKR
In the case of B11, the “binding (RU)” value with CBD-toxin A-Fc [1] came out at 269 RU. Further, the “IC50, Vero cell viability (neutralization), Trial 4, 32 pM Toxin A” value in [2] stood at 33 pM. The “binding (RU)” value in the assay with CBD-toxin B-Fc is -8 RU. In assay [4], binding was characterised by a dissociation constant (Kd) of 13.9 pM, the “T½” value turned out to be 54.9 h, the koff was 3.5e-06 s⁻¹ and the kon was 251000 M⁻¹ s⁻¹. Also, the “binding (RU)” value with CBD-toxin A-Fc [3] came out at 224 RU.

B12: H1H3328P (antibody, V domains shown)
VH: EVQLVESGGGLVQPGGSLTLSCAASRFTFSNYDMHWVRQATGKGLEWVSAIGTVGDTYYAGSVKGRFTISRDDAKNSLYLQMNSLRAGDTAVYYCARDRGGAGTYSFYYGMDVWGQGTTVTVSS
VL: DIQMTQSPSSLSASVGDRVTITCRASQDISNYLAWYQQKPGKVPKLLIYAASTLQSGVPSRFSGSGSGTDFTLTVSSLQPEDVATYYCQKYTSAPFTFGPGTKVDIKR
As for B12, the “binding (RU)” value in the assay with CBD-toxin A-Fc [1] was determined as 354 RU. Moreover, the “IC50, Vero cell viability (neutralization), Trial 3, 32 pM Toxin A” value in assay [2] was determined as 112 pM. For the same molecule, the “binding (RU)” value with CBD-toxin B-Fc was -6 RU. Also, in assay [4], the Kd came out at 95.7 pM, the “T½” value came out at 5.27 h, the koff is 3.66e-05 s⁻¹ and the kon came out at 382000 M⁻¹ s⁻¹. For the same molecule, the “binding (RU)” value with CBD-toxin A-Fc [3] is 227 RU.

B13: H1M3134N (antibody, V domains shown)
VH: QVQLVESGGDVVQPGRSLRLSCAASGFTFSGHGMHWVRQAPGKGLEWVALILYDGSSEDYTDSVKGRFTVSRDNSKNTLYLQMNSLRAEDTAVYYCARGSILNRPFDYWGQGTLVTVSS
VL: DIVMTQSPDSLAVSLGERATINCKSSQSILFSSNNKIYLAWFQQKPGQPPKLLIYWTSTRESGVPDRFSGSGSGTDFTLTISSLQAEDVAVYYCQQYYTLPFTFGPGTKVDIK
notes: also called HIM3134N
For B13, the entries for the “binding (RU)” value in the assay with CBD-toxin A-Fc [1] and with CBD-toxin A-Fc [3] were -1 RU and 195 RU, respectively. In assay [2], the “IC50, Vero cell viability (neutralization), Trial 4, 32 pM Toxin A” value came out at 38 pM.

B14: H1H3134N (antibody, V domains shown)
VH: QVQLVESGGDVVQPGRSLRLSCAASGFTFSGHGMHWVRQAPGKGLEWVALILYDGSSEDYTDSVKGRFTVSRDNSKNTLYLQMNSLRAEDTAVYYCARGSILNRPFDYWGQGTLVTVSS
VL: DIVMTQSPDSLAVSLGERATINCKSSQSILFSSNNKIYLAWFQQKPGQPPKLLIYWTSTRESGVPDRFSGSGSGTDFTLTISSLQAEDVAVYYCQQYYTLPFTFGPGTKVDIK
Consider B14, for which, in assay [5], the Kd was 27.8 pM, the “T½” value turned out to be 68.3 h, the koff was determined as 2.82e-06 s⁻¹ and the kon came to 102000 M⁻¹ s⁻¹.

B15: H1H3354P (antibody, V domains shown)
VH: QVQLQQSGPGLVKPSQTLSLTCAISGDSVSSNSAAWNWIRQSPSRGLEWLGRTYYRSKWYHDYAFSVKSRILINPDTSKNLFSLQVNSVTPEDTAVYYCARDRRSYFDYWGQGTLVTVSS
VL: EIVLTQSPATLSLSPGERATLSCRASRSVSSSLAWYQQKPGQAPRLLIYDASNRATGIPARFSGGGSGTDFTLTISSLEPEDFAVYYCQQRNNWPPTFGQGTKLEIKR
With B15, the “binding (RU)” value was -19 RU with CBD-toxin A-Fc [1] and -2 RU with CBD-toxin A-Fc [3]. The binding result in [8] is “no binding (tested: CBD at ~500 nM, CBD:Mab 1:5 and 1:20)”; in [6], “no binding (tested: toxin at 5 to 10 nM)”.

By Kd is commonly meant the constant that tells how readily two partners part at equilibrium. A lower Kd goes with a tighter complex. In general, koff refers to the first-order rate constant of dissociation. Low values mean slow dissociation, high ones fast dissociation. Broadly, the kon is the rate constant with which the complex forms. Higher therefore signals fast association.
